# “And” between values parts separate entries of the source, which are not always exact repeats. Equal values may be shown once.
# Legend:
# Experiment in all cases: high-speed atomic force microscopy
# [1] = biological target: EML4-ALK v3 with the subdomain region (191-217 aa residues) deleted (ddv3) (human) (UniProt Q9UM73)
# [2] = biological target: EML4-ALK variant-3 (v3b, E6:A20) (human) (UniProt Q9UM73)
# [3] = biological target: EML4-ALK variant-5 (v5a, E2:A20) (human) (UniProt Q9UM73)
substance,measurement,setting,value
EML4-ALK v3 with the subdomain region (191-217 aa residues) deleted (ddv3) (from UniProt Q9UM73 1058-1620) (natural protein),ratio of dimers,[1],28.1%
same,ratio of trimers,[1],7.3%
same,stoichiometry N,[1],2 and 3
"EML4-ALK variant-3 (v3b, E6:A20) (from UniProt Q9UM73 1058-1620) (natural protein)",ratio of dimers,[2],38.5%
same,ratio of trimers,[2],9.3%
same,stoichiometry N,[2],2 and 3
"EML4-ALK variant-5 (v5a, E2:A20) (from UniProt Q9UM73 1058-1620) (natural protein)",ratio of dimers,[3],29.8%
same,ratio of trimers,[3],10.2%
same,stoichiometry N,[3],2 and 3

# Reference: article doi:10.1101/2025.08.07.668011
